Assay [1] has as its target PD-L1-6His-tag (Programmed cell Death Ligand 1) of the Cisbio Human PD1/PD-L1 biochemical binding assay (human) (UniProt Q9NZQ7). Kind of assay: AlphaScreen or HTRF. (In Alpha technology, singlet oxygen from a donor bead excites a nearby acceptor bead.)
The target of assay [2] is human PD-L1 expressed on CHO-K1 cells (CHO-K1 hPD-L1) (human) (UniProt Q9NZQ7). Kind of assay: radioligand binding.
Chain of human PD-L1 expressed on CHO-K1 cells (CHO-K1 hPD-L1) (human) (Q9NZQ7 19-290): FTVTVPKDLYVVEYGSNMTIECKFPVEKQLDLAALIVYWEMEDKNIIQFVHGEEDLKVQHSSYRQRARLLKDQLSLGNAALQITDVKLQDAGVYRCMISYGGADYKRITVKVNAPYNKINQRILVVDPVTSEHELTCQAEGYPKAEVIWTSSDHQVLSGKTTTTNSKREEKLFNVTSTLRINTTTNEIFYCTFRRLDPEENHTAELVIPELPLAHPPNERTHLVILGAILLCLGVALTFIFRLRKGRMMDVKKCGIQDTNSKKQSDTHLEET

Chain of PD-L1-6His-tag (Programmed cell Death Ligand 1) of the Cisbio Human PD1/PD-L1 biochemical binding assay (human) (Q9NZQ7 19-238): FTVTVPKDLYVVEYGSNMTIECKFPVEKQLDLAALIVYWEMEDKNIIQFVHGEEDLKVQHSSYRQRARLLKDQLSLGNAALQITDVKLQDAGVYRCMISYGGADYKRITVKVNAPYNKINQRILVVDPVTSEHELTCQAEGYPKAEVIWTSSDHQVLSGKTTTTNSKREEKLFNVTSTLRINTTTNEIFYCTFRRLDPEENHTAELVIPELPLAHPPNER

Turning to BMS78, 14-mer macrocyclic peptide, the IC50 in assay [1] was 0.133 µM.

“NJMP1 (BMS78 C-terminally conjugated to Lys(DOTA)NH2) (peptide)”: the IC50 in assay [1] worked out at 0.242 µM.

In assay [2], [68Ga]Ga-NJMP1 (peptide) yielded a cell internalization %AD/10^6 cells (90 min) (%AD/10^6 cells) of 1.68 and a membrane bound %AD/10^6 cells (90 min) (%AD/10^6 cells) of 0.36.

On to “[68Ga]Ga-WL12 (WL12 with DOTAGA on Orn13, loaded with 68Ga) (peptide)”, for which, in assay [2], the cell internalization %AD/10^6 cells (90 min) (%AD/10^6 cells) came to 19.2 and the membrane bound %AD/10^6 cells (90 min) (%AD/10^6 cells) is 18.2.

Take natGa-NJMP1 (peptide): in assay [1], the IC50 stood at 25.9 µM.

Substance “natGa-WL12 (WL12 with DOTAGA on Orn13, loaded with natGa) (peptide)” displayed an IC50 in assay [1] of 0.0124 µM. Against the preceding substance, the IC50 is about 2100-fold lower.

A word on the IC50: it is the concentration that inhibits the measured activity by half.
